Measured values published in patent US6333311.

Experiments:
[1] = biological target: Jurkat cell 105 kD lactoferrin receptor (human); experiment: Scatchard analysis, 125I-labelled protein on whole Jurkat cells (species comparison)
[2] = biological target: HT-29 cells (human colon carcinoma cell line); experiment: Scatchard analysis, 125I-labelled lactoferrin on HT-29 cells; High affinity (nM)
[3] = biological target: HT-29 cells (human colon carcinoma cell line); experiment: Scatchard analysis, 125I-labelled lactoferrin on HT-29 cells; High affinity (nM); the cell wraps into r15 (8^a))
human lysozyme (human) [4] = biological target: human lysozyme (human) (UniProt P61626); experiment: solid-phase ligand binding ELISA on hLZ-coated plates
human lysozyme (human) [5] = biological target: human lysozyme (human) (UniProt P61626); experiment: solid-phase ligand binding ELISA on hLZ-coated plates; percent of the response with natural hLF
[6] = biological target: Jurkat cell 105 kD lactoferrin receptor (human); experiment: Scatchard analysis, 125I-labelled protein on whole Jurkat cells
[7] = biological target: HT-29 cells (human colon carcinoma cell line); experiment: Scatchard analysis, 125I-labelled lactoferrin on HT-29 cells; column Total affinity (µM); high affinity binding lost (--)
[8] = biological target: Jurkat cell 105 kD lactoferrin receptor (human); experiment: Scatchard analysis, Jurkat cells cultured 24 h with 30 mM sodium chlorate
[9] = biological target: HT-29 cells (human colon carcinoma cell line); experiment: Scatchard analysis, 125I-labelled lactoferrin on HT-29 cells; column Total affinity (µM); high affinity binding lost (--); one experiment
[10] = biological target: Jurkat cell 105 kD lactoferrin receptor (human); experiment: Scatchard analysis, 125I-hLf on Jurkat cells cultured 24 h with 30 mM sodium chlorate
[11] = biological target: Jurkat cell 105 kD lactoferrin receptor (human); experiment: Scatchard analysis, 125I-hLf on Jurkat cells cultured without sodium chlorate

Chain of bovine lactoferrin (P24627 20-708 limits assumed): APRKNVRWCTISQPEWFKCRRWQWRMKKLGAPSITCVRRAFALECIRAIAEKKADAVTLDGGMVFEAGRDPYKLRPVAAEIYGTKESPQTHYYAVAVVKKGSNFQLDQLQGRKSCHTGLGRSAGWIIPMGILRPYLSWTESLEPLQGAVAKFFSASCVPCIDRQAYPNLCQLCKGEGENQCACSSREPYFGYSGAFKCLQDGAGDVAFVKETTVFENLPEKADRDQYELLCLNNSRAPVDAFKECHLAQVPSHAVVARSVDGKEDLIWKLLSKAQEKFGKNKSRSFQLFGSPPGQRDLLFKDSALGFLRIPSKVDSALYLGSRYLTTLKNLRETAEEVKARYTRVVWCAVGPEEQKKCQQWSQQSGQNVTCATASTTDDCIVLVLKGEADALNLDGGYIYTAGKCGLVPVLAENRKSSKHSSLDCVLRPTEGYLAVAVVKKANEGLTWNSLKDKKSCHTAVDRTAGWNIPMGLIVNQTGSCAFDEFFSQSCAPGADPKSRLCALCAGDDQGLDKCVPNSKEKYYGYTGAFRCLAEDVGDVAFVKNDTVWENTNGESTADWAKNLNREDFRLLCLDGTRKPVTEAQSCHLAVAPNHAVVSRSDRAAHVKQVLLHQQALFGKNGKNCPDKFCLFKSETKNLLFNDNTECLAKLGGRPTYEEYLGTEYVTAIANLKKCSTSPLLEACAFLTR

| Kd [1] [nM] | Kd [2] [nM] | Kd [6] [nM] | Substance | other results |
| --- | --- | --- | --- | --- |
| 60 | 81 | – | bovine lactoferrin (from UniProt P24627) (ligand) | – |
| – | – | 65 | hLF^-2N (from UniProt P02788) (ligand) | Kd [3]: 124 nM; fold lower affinity than N-terminally intact hLF (human lysozyme (human) [4]): 3 fold lower; Reactivity (%) (human lysozyme (human) [5]): 37.5% |
| – | – | 57 | hLF^-3N (from UniProt P02788) (ligand) | Kd [7]: 1700 nM; fold lower affinity than N-terminally intact hLF (human lysozyme (human) [4]): 17 fold lower; Kd [8]: 57.2 nM; Reactivity (%) (human lysozyme (human) [5]): 5.1% |
| – | – | 41 | hLF^-4N (from UniProt P02788) (ligand) | Kd [9]: 700 nM |
| – | 66 | – | iron-saturated human lactoferrin (from UniProt P02788) (ligand) | – |
| 31 | – | – | murine lactoferrin (from UniProt P08071) (ligand) | – |
| 60 | 74 | 69 | natural human lactoferrin (from UniProt P02788) (ligand) | Kd [10]: 62.6 nM; Kd [11]: 71.1 nM |
| – | – | 81 | non-modified recombinant human lactoferrin (from UniProt P02788) (ligand) | – |
| – | – | 12.4 | rhLF^-5N (ligand) | Kd [8]: 27.9 nM |
| – | 88 | – | transgenic hLF isolated from milk of a transgenic bovine (from UniProt P02788) (ligand) | – |
